Blank lines part the entries; values can stand above or below the binder they belong to.
How the values were obtained:
murine CCR8 [1] = molecular target: T1, murine CCR8 (mouse, UniProt P56484 1-353); test: cell-based or functional assay
T1 sequence: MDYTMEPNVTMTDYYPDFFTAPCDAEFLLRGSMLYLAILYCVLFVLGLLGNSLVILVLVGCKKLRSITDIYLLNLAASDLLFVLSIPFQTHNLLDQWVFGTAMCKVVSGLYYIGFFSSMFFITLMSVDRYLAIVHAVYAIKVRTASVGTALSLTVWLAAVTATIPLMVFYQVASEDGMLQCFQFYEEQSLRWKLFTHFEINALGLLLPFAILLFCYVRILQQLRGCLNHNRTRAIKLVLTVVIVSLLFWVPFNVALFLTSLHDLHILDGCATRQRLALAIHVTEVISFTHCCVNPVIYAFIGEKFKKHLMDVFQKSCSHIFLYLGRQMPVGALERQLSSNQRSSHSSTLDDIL

murine CCR8 [2] = molecular target: T1, murine CCR8; test: cell-based or functional assay; remark: listed apart in the source
human CCR8 [3] = molecular target: T2, human CCR8 (human, UniProt P51685 1-355); test: cell-based or functional assay
human CCR8 [4] = molecular target: T2, human CCR8; test: cell-based or functional assay; remark: listed apart in the source
human CCR8 [5] = molecular target: T3, human CCR8 (human, UniProt P51685 1-355); test: FACS, HuT78 cells endogenously expressing human CCR8
T3 construct: also called hCCR8; P51685_CCR8_HUMAN

[6] = molecular target: T4, FcRn immobilized on FcRn column (Roche, Order No. 8128057001); test: FcRn affinity chromatography, linear pH gradient
T4 construct: bought prepacked column; also called immobilized FcRn
Procedure: 30 μL of each antibody (1 mg/mL in equilibration buffer) was applied to the column.

ADCP EC50 (pM); murine CCR8 expressing HEK293 target cells, murine bone marrow derived M2 macrophages (murine CCR8 [1]): 402 pM
B1: TPP-15285 (antibody, mouse IgG2a)
heavy: EVQLLESGGGLVQPGGSLRLSCAASGFTFSDYGVHWVRQAPGKGLEWVSGVSWNGSRTHYADSVKGRFTISRDNSKNTLYLQMNSLRAEDTAVYYCVTRGAWGQGTLVTVSSAKTTAPSVYPLAPVCGDTTGSSVTLGCLVKGYFPEPVTLTWNSGSLSSGVHTFPAVLQSDLYTLSSSVTVTSSTWPSQSITCNVAHPASSTKVDKKIEPRGPTIKPCPPCKCPAPNLLGGPSVFIFPPKIKDVLMISLSPIVTCVVVDVSEDDPDVQISWFVNNVEVHTAQTQTHREDYNSTLRVVSALPIQHQDWMSGKEFKCKVNNKDLPAPIERTISKPKGSVRAPQVYVLPPPEEEMTKKQVTLTCMVTDFMPEDIYVEWTNNGKTELNYKNTEPVLDSDGSYFMYSKLRVEKKNWVERNSYSCSVVHEGLHNHHTTKSFSRTPGK
light: QSVLTQPPSASGTPGQRVTISCSGSSFNIGSHFVYWYQQLPGTAPKLLIYKNNQRPSGVPDRFSGSKSGTSASLAISGLRSEDEADYYCAAWDDSLNGPVFGGGTKLTVLGQPKSSPSVTLFPPSSEELETNKATLVCTITDFYPGVVTVDWKVDGTPVTQGMETTQPSKQSNNKYMASSYLTLTARAWERHSSYSCQVTHEGHTVEKSLSRADCS

Ca flux assay IC50 (nM), block of signaling induced by CCL1 at 40 ng/ml; CHO cells expressing murine CCR8 (murine CCR8 [2]): 1.65 nM
B2: TPP-14095 (antibody, human IgG1, lambda, V domains shown)
VH: EVQLLESGGGLVQPGGSLRLSCAASGFTFSSYGMHWVRQAPGKGLEWVSAISGSGGSTYYADSVKGRFTISRDNSKNTLYLQMNSLRAEDTAVYYCARGRQLGSWGQGTLVTVSS
VL: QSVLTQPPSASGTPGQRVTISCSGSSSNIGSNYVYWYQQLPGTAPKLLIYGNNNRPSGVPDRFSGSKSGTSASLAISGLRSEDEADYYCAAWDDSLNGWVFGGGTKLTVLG

Ca flux assay IC50 (nM), block of signaling induced by CCL1 at 60 ng/ml; CHO cells expressing human CCR8 (human CCR8 [3]): 0.52 nM | Ca flux assay Span ratio (from max to min), block of signaling induced by CCL1 at 60 ng/ml; CHO cells expressing human CCR8 (human CCR8 [4]): ~11400
B3: TPP-20955 (antibody, human IgG1, lambda, V domains shown)
VH: EVQLLESGGGLVQPGGSLRLSCAASGFTFSSYGMHWVRQAPGKGLEWVSAIKWGGGSHGYADSVKGRFTISRDNSKNTLYLQMNSLRAEDTAVYYCARGHHKGYDGRFFDYWGQGTLVTVSS
VL: QSVLTQPPSVSGAPGQRVTISCTGSSSNIGAGYNVHWYQQLPGTAPKLLIYTNNRRPSGVPDRFSGSKSGTSASLAISGLRSEDEADYYCAAWDASLSGWVFGGGTKLTVLG

EC50 (human CCR8 [5]): 3.25 nM
B4: TPP-27495 (antibody, human IgG1, lambda)
heavy: EVQLLESGGGLVQPGGSLRLSCAASGFTFSSYGMHWVRQAPGKGLEWVSAINWNGGSTGYADSVKGRFTISRDNSKNTLYLQMNSLRAEDTAVYYCARGHHSGYDGRFFDYWGQGTLVTVSSASTKGPSVFPLAPSSKSTSGGTAALGCLVKDYFPEPVTVSWNSGALTSGVHTFPAVLQSSGLYSLSSVVTVPSSSLGTQTYICNVNHKPSNTKVDKKVEPKSCDKTHTCPPCPAPELLGGPSVFLFPPKPKDTLYITREPEVTCVVVDVSHEDPEVKFNWYVDGVEVHNAKTKPREEQYNSTYRVVSVLTVLHQDWLNGKEYKCKVSNKALPAPIEKTISKAKGQPREPQVYTLPPSRDELTKNQVSLTCLVKGFYPSDIAVEWESNGQPENNYKTTPPVLDSDGSFFLYSKLTVDKSRWQQGNVFSCSVMHEALHNHYTQKSLSLSPGK
light: not shown
notes: 70% afucosylated

pH at Elution [6]: 7.88 pH
B5: TPP-27495 (antibody, human IgG1, lambda)
heavy: B4 heavy
light: not shown
modifications: 70% afucosylated
